Reference: patent publication US12527821B2, “Compositions and methods related to tumor cell killers and vaccines” (THE BRIGHAM AND WOMEN'S HOSPITAL, INC., priority 2018, dated 2026)

Experiments:
rGBMi2-ST-TK = assay: 18F-FHBG PET imaging of GCV-induced cell clearance; assay type: in vivo, mice; settings: after 10 days of daily GCV treatment
Experimental: PET imaging: Mice implanted intracranially with rGBMi2-TK-GF1 were fasted for 4 hours before imaging, anesthetized with 2% isoflurane and 100% oxygen, and injected with 500 μCi of 18F-FHBG via the tail vein. Two hours later, a static dataset was acquired for 60 minutes in 1 bed position (FOV 4.2 cm) using an energy window of 250-700 keV for each mouse. Images were reconstructed using a 2D OSEM algorithm with 2 iterations and 16 subsets. For measuring the mean and maximum standardized uptake values (SUVmean and SUVmax) and metabolic tumor volume (MTV), three-dimensional (3D) regions of interest were drawn over the mouse brain, and uptake values were measured using the explore Vista software (GE Healthcare). The maximum intensity projection images were generated using ImageJ. After the baseline PET scan at day 0, mice were treated daily with GCV (10 mg/kg) and imaged again by PET at day 10 after GCV treatment.

[1] = test system: 293 Ts engineered with LV-IFNβ/zeo-HSV/TK; assay: Cell viability after GCV treatment; assay type: cell-based
rGBMi2-TK cells = assay: GCV-induced clearance of HSV-TK engineered rGBM in vitro (cell viability); assay type: cell-based, human; settings: in comparison to controls
Experimental: Cell viability and caspase assays: Tumor cells were plated in 96-well plates and treated with different doses of S-TRAIL for 24 hours and different doses of GCV for up to 96 hours. Cell viability was measured using an ATP-dependent luminescent reagent (CellTiter Glo, Promega) for non-Fluc expressing cells, or with luciferin or coelenterazine for Fluc- and Rluc-expressing cells, respectively. Caspase activity was determined using a DEVD-aminoluciferin assay (Caspase-3/7 Glo, Promega) according to the manufacturer's instructions. Experiments were performed in triplicate.

rGBMnDR4/5-ST-TK-GF1 = assay: Intracranial implantation of sECM-encapsulated rGBMnDR4/5-ST-TK-GF1 in SCID mice, growth and GCV clearance (BLI); assay type: in vivo
From the text: (1) Nodular recurrent GBM resection model: Local retention of therapeutic cells can be achieved by encapsulation of therapeutic cells into biodegradable synthetic extracellular matrix (sECM) before implantation into the resection cavity (16).

[2] = test system: CT2a-GMCSF-mIFNaR1KO engineered with LV-IFNβ/zeo-HSV/TK; assay: Cell viability after GCV treatment; assay type: cell-based, mouse
From the text: FIG. 2A details the concept to test if CT2a-IFNaR1-KO can be engineered with LV-IFNβ/zeo-HSV/TK.

rGBMiDR4/5-ST-TK = assay: GCV titration of DR4/5 knockout line with HSV-TK in vitro; assay type: cell-based, human; settings: as opposed to non-TK control lines
Experimental: (§1) Thus, should tumors acquire a DRL-resistant phenotype during adjuvant clinical therapy and tumor recurrence, TK-induced bystander effect of therapeutic self-cells might still provide robust treatment efficacy.
(§2) Lentiviral transductions and engineering of stable cell lines: Lentiviral packaging was performed by transfection of 293T cells as previously described (73), and cells were transduced with lentiviral vectors at M.O.I of 2 in medium containing protamine sulfate (2 μg/ml). For bioluminescence imaging, cancer cells were transduced with LV-Pico2-Fluc-mCherry, LV-Pico2-Rluc-mCherry, or LV-Pico2-Fluc-GFP and selected by FACS using a BD FACSAriaTM Fusion cell sorter or puromycin selection (1 μg/ml) in culture. GFP or mCherry expression was visualized by fluorescence microscopy. […] Cell viability was measured using an ATP-dependent luminescent reagent (CellTiter Glo, Promega) for non-Fluc expressing cells, or with luciferin or coelenterazine for Fluc- and Rluc-expressing cells, respectively. Caspase activity was determined using a DEVD-aminoluciferin assay (Caspase-3/7 Glo, Promega) according to the manufacturer's instructions. Experiments were performed in triplicate. […]

rGBMnDR4/5-ST-TK = assay: as above; assay type: cell-based, human; settings: as opposed to non-TK control lines
Experimental: as §1, §2

[3] = test system: panel of different cancer cell lines; assay: Screen of receptor-targeted ligands/antagonists on a panel of cancer cell lines; assay type: cell-based, human; settings: 72 hours after treatment; versus TSP, Nb, IL24
From the text: To investigate the therapeutic efficacy of receptor-targeted molecules, the Inventors tested a panel of different cancer cell lines for their susceptibility to treatment with cell surface receptor ligands/antagonists targeting CD36 (thrombospondin-1, TSP), epidermal growth factor receptor (EGFR) (EGFR-blocking nanobody, Nb), heterodimeric interleukin 20 receptor (IL20R) comprised of subunits α and β (interleukin 24, IL24), and DRs (TRAIL) (FIG. 6 C). A nodular (n) and an invasive (i) GBM cell line (Gli36Δ-EGFR and GBM8, respectively) were screened and found to be DR ligand (DRL)-sensitive(s) (herein referred to as sGBMn and sGBMi). […]
as §2, with “For bioluminescence imaging, cancer cells were transduced with LV-Pico2-Fluc-mCherry, LV-Pico2-Rluc-mCherry, or LV-Pico2-Fluc-GFP and selected by FACS using a BD FACSAriaTM Fusion cell sorter or puromycin selection (1 μg/ml) in culture.” left out, “instructions.” for “instructions. Experiments were performed in triplicate.”

GBM64 (rGBMi2) = assay: TRAIL sensitivity screen/titration (cell viability); assay type: cell-based, human
From the text: (§3) To investigate the therapeutic efficacy of receptor-targeted molecules, the Inventors tested a panel of different cancer cell lines for their susceptibility to treatment with cell surface receptor ligands/antagonists targeting CD36 (thrombospondin-1, TSP), epidermal growth factor receptor (EGFR) (EGFR-blocking nanobody, Nb), heterodimeric interleukin 20 receptor (IL20R) comprised of subunits α and β (interleukin 24, IL24), and DRs (TRAIL) (FIG. 6 C). A nodular (n) and an invasive (i) GBM cell line (Gli36Δ-EGFR and GBM8, respectively) were screened and found to be DR ligand (DRL)-sensitive(s) (herein referred to as sGBMn and sGBMi). The following non-GBM cancer lines were also identified as DRL-sensitive: PC3 (sPCm), Jurkat (sTCL), HCT116 (sCC), and MDA231-BrM2a (sBCm). […] In addition to the above DRL-sensitive(s) cell lines, three DRL-resistant (r) GBM cell lines were identified (GBM23, GBM64, GBM46, herein referred to as rGBMi1, rGBMi2, rGBMi3) (FIG. 6D). Based on these findings, DR4 and DR5 were chosen as the most suitable candidates to further investigate the therapeutic potential of receptor self-targeted therapies.
(§4) Lentiviral transductions and engineering of stable cell lines: Lentiviral packaging was performed by transfection of 293T cells as previously described (73), and cells were transduced with lentiviral vectors at M.O.I of 2 in medium containing protamine sulfate (2 μg/ml). For bioluminescence imaging, cancer cells were transduced with LV-Pico2-Fluc-mCherry, LV-Pico2-Rluc-mCherry, or LV-Pico2-Fluc-GFP and selected by FACS using a BD FACSAriaTM Fusion cell sorter or puromycin selection (1 μg/ml) in culture. GFP or mCherry expression was visualized by fluorescence microscopy. […] Cell viability was measured using an ATP-dependent luminescent reagent (CellTiter Glo, Promega) for non-Fluc expressing cells, or with luciferin or coelenterazine for Fluc- and Rluc-expressing cells, respectively. Caspase activity was determined using a DEVD-aminoluciferin assay (Caspase-3/7 Glo, Promega) according to the manufacturer's instructions. Experiments were performed in triplicate. For treatments with conditioned medium, plasmid vectors coding for secretable expression of CD36-targeting ligand 3TSR (a functional thrombospondin-1, TSP-1 analog) (09), EGFR-blocking ligand NB (12), IL-20Rα/β-targeting ligand IL-24 (69), and DR ligand S-TRAIL (69) were transfected into 293T cells. Medium was changed the next day, collected 40 hours after transfection, and frozen at −80° C. until further use.

MDA231-BrM2a (sBCm) = assay: as above; assay type: cell-based, human
From the text: as §3, §4

GBM46 (rGBMi3) = assay: as above; assay type: cell-based, human
From the text: as §3, §4

Jurkat (sTCL) = assay: as above; assay type: cell-based, human
From the text: as §3, §4

HCT116 (sCC) = assay: as above; assay type: cell-based, human
From the text: as §3, §4

PC3 (sPCm) = assay: as above; assay type: cell-based, human
From the text: as §3, §4

GBM8 (sGBMi) = assay: as above; assay type: cell-based, human; settings: invasive GBM cell line
From the text: as §3, §4

Gli36Δ-EGFR (sGBMn) = assay: as above; assay type: cell-based, human; settings: nodular GBM cell line
From the text: as §3, §4

GBM23 (rGBMi1) = assay: as above; assay type: cell-based, human
From the text: as §3, §4

## Nc1nc2c(ncn2COC(CO)CO)c(=O)[nH]1 [GCV, Ganciclovir]
rGBMi2-ST-TK
  tumor-specific PET signal intracranially: no longer visible
[1]
  cell-viability after GCV-treatment: dose-dependent reduction of cell-viability
rGBMi2-TK cells
  elimination of rGBMi2-TK cells: dose- and time-dependent elimination
rGBMnDR4/5-ST-TK-GF1; after initiation of GCV therapy
  time to drop of BLI signal back to baseline: ≤ 9 days
rGBMnDR4/5-ST-TK-GF1; mouse, in vivo
  GCV-induced (HSV-TK mediated) cell clearance: successful cell clearance
[2]
  cell-viability after GCV-treatment: dose-dependent reduction of cell-viability
rGBMiDR4/5-ST-TK
  cell elimination by GCV: dose-dependent cell elimination
rGBMnDR4/5-ST-TK
  cell elimination by GCV: dose-dependent cell elimination

B1: TNF-related apoptosis-inducing ligand (protein, listed as Homo sapiens)
chain: MAMMEVQGGPSLGQTCVLIVIFTVLLQSLCVAVTYVYFTNELKQMQDKYSKSGIACFLKEDDSYWDPNDEESMNSPCWQVKWQLRQLVRKMILRTSEETISTVQEKQQNISPLVRERGPQRVAAHITGTRGRSNTLSSPNSKNEKALGRKINSWESSRSGHSFLSNLHLRNGELVIHEKGFYYIYSQTYFRFQEEIKENTKNDKQMVQYIYKYTSYPDPILLMKSARNSCWSKDAEYGLYSIYQGGIFELKENDRIFVSVTNEHLIDMDHEASFFGAFLVG
notes: death receptor (DR4/5) ligand used to treat cancer cell lines
[3]
  efficacy in comparison to the other tested ligands: most effective agent
GBM64 (rGBMi2)
  susceptibility to DR ligand (DRL): DRL-resistant
MDA231-BrM2a (sBCm)
  susceptibility to DR ligand (DRL): DRL-sensitive
GBM46 (rGBMi3)
  susceptibility to DR ligand (DRL): DRL-resistant
Jurkat (sTCL)
  susceptibility to DR ligand (DRL): DRL-sensitive
HCT116 (sCC)
  susceptibility to DR ligand (DRL): DRL-sensitive
PC3 (sPCm)
  susceptibility to DR ligand (DRL): DRL-sensitive
GBM8 (sGBMi)
  susceptibility to DR ligand (DRL): sensitive
Gli36Δ-EGFR (sGBMn)
  susceptibility to DR ligand (DRL): sensitive
GBM23 (rGBMi1)
  susceptibility to DR ligand (DRL): DRL-resistant
